In doi:10.1101/2024.03.12.584565 (bioRxiv, 2024):

How the values were obtained:
Test in all cases: pull-down
[1] = biological target: T1, Flag-tagged Pds5b, co-expressed with Nek2aΔMR and Δ86-cyclin A2 (human, UniProt Q9NTI5 1-1447)
T1 sequence: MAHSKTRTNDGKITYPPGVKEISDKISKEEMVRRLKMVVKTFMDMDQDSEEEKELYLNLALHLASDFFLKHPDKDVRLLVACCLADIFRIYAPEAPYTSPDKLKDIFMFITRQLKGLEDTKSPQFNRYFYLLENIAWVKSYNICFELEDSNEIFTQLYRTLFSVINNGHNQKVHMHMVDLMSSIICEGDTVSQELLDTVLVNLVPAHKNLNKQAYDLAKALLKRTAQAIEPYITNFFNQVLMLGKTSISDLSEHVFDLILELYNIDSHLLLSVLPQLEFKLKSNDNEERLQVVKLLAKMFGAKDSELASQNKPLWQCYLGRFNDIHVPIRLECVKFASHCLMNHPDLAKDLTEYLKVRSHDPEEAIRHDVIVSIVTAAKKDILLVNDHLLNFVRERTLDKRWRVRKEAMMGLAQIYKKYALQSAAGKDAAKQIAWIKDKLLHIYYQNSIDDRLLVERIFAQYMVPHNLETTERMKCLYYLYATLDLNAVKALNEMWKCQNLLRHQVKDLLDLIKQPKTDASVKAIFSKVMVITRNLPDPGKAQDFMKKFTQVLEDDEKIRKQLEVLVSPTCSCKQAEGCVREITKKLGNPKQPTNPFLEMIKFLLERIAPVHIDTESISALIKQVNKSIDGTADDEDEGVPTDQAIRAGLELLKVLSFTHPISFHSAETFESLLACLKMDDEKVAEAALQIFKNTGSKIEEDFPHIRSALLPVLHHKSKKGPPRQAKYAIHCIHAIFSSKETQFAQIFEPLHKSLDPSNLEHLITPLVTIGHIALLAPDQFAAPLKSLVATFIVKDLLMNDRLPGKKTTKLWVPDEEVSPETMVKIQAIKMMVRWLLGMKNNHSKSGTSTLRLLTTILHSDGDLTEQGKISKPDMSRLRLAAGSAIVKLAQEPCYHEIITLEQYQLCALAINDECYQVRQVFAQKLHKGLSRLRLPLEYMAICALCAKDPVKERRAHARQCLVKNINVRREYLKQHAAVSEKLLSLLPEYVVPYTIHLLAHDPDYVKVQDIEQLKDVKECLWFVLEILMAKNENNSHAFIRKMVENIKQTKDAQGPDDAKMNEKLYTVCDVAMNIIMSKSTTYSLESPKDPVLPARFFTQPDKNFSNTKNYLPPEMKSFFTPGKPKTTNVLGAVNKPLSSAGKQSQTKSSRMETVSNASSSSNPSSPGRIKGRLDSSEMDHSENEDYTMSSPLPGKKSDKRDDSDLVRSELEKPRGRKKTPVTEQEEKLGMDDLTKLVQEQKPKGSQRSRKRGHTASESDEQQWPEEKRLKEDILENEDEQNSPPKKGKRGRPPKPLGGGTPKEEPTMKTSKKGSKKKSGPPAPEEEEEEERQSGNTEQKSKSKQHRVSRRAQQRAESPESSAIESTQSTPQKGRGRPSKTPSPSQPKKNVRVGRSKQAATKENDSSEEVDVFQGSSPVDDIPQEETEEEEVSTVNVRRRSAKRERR

[2] = biological target: T2, Flag-tagged Pds5b-Ser1161,1166Ala (2A), phosphorylated by Nek2a in vitro (human, UniProt Q9NTI5 1-1447, Ser1161,1166Ala | Ser1161,1166Ala)
T2 sequence: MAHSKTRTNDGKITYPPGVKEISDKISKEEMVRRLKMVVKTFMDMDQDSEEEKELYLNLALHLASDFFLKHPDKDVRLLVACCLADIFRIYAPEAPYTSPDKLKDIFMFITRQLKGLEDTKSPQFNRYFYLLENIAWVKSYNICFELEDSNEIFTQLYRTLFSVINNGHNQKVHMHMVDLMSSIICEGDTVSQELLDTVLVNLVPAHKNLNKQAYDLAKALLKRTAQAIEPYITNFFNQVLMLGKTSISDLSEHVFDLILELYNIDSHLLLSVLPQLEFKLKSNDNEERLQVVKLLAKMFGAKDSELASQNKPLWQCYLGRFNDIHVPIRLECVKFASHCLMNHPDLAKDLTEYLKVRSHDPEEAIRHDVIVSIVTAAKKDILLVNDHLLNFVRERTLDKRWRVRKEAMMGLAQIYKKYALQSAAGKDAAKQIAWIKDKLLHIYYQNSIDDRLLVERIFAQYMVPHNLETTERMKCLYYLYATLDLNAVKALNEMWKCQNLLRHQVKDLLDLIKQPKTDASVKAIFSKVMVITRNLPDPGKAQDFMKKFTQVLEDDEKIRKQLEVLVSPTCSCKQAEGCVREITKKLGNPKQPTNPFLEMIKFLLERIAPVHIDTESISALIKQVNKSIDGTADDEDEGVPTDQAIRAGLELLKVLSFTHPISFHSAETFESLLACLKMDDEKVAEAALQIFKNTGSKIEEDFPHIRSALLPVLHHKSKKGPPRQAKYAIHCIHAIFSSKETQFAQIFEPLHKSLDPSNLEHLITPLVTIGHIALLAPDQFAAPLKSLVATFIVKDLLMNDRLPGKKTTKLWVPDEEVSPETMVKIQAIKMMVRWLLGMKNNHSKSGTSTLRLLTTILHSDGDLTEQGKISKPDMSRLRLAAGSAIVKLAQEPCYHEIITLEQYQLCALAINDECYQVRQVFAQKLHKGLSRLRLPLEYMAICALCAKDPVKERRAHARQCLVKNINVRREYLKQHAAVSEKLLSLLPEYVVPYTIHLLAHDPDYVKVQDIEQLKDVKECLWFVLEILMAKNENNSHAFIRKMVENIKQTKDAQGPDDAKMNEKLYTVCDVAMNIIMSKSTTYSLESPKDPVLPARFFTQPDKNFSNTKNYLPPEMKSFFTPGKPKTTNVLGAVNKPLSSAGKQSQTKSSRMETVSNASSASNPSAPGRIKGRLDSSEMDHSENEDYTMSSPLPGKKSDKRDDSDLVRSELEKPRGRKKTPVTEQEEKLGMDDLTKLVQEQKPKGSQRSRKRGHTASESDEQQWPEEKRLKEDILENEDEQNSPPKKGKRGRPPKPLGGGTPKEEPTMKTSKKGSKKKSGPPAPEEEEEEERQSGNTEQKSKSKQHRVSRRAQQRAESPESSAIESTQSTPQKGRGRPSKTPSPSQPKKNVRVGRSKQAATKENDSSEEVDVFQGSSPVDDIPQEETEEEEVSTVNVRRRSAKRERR

[3] = biological target: T3, Flag-tagged Pds5b, co-expressed with Nek2aΔMR (human, UniProt Q9NTI5 1-1447)
T3 sequence: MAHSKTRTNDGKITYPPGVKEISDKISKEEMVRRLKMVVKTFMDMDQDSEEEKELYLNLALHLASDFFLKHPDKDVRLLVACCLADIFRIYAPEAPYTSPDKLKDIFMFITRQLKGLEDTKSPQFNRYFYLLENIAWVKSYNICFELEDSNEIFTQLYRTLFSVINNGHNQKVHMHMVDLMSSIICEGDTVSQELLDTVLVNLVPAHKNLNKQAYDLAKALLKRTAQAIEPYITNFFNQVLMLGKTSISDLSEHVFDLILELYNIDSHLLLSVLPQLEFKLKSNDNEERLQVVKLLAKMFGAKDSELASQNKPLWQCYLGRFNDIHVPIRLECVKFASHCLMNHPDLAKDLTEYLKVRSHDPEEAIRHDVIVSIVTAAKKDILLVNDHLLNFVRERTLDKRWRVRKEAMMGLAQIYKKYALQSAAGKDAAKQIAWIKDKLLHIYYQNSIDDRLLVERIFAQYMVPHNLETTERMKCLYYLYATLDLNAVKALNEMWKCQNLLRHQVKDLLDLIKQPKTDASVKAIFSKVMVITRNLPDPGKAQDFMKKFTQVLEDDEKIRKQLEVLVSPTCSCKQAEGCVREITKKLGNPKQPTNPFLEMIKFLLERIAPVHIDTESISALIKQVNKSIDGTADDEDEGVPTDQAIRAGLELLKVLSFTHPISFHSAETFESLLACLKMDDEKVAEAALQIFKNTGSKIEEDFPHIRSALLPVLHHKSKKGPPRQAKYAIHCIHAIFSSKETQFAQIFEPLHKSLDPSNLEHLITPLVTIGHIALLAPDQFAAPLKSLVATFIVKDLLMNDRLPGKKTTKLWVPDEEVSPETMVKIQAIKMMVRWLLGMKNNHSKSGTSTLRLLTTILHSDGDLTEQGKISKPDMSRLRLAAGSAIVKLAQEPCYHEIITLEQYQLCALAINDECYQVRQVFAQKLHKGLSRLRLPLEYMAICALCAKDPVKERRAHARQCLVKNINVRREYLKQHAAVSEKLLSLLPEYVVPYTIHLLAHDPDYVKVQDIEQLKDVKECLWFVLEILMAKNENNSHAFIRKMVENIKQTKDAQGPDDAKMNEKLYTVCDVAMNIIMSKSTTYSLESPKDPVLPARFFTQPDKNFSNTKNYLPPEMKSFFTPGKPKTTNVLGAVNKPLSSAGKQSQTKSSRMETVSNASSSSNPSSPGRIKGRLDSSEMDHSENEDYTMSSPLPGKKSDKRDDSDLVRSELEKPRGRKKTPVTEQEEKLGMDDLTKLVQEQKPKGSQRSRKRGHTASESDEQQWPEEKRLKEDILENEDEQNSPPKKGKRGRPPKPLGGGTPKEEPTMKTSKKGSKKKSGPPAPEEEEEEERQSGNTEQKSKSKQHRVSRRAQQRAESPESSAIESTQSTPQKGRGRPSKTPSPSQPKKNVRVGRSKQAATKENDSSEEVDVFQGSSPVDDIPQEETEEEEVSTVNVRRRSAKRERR

Measured: binding result

B1: recombinant human Wapl (natural protein)
chain: MTSRFGKTYSRKGGNGSSKFDEVFSNKRTTLSTKWGETTFMAKLGQKRPNFKPDIQEIPKKPKVEEESTGDPFGFDSDDESLPVSSKNLAQVKCSSYSESSEAAQLEEVTSVLEANSKISHVVVEDTVVSDKCFPLEDTLLGKEKSTNRIVEDDASISSCNKLITSDKVENFHEEHEKNSHHIHKNADDSTKKPNAETTVASEIKETNDTWNSQFGKRPESPSEISPIKGSVRTGLFEWDNDFEDIRSEDCILSLDSDPLLEMKDDDFKNRLENLNEAIEEDIVQSVLRPTNCRTYCRANKTKSSQGASNFDKLMDGTSQALAKANSESSKDGLNQAKKGGVSCGTSFRGTVGRTRDYTVLHPSCLSVCNVTIQDTMERSMDEFTASTPADLGEAGRLRKKADIATSKTTTRFRPSNTKSKKDVKLEFFGFEDHETGGDEGGSGSSNYKIKYFGFDDLSESEDDEDDDCQVERKTSKKRTKTAPSPSLQPPPESNDNSQDSQSGTNNAENLDFTEDLPGVPESVKKPINKQGDKSKENTRKIFSGPKRSPTKAVYNARHWNHPDSEELPGPPVVKPQSVTVRLSSKEPNQKDDGVFKAPAPPSKVIKTVTIPTQPYQDIVTALKCRREDKELYTVVQHVKHFNDVVEFGENQEFTDDIEYLLSGLKSTQPLNTRCLSVISLATKCAMPSFRMHLRAHGMVAMVFKTLDDSQHHQNLSLCTAALMYILSRDRLNMDLDRASLDLMIRLLELEQDASSAKLLNEKDMNKIKEKIRRLCETVHNKHLDLENITTGHLAMETLLSLTSKRAGDWFKEELRLLGGLDHIVDKVKECVDHLSRDEDEEKLVASLWGAERCLRVLESVTVHNPENQSYLIAYKDSQLIVSSAKALQHCEELIQQYNRAEDSICLADSKPLPHQNVTNHVGKAVEDCMRAIIGVLLNLTNDNEWGSTKTGEQDGLIGTALNCVLQVPKYLPQEQRFDIRVLGLGLLINLVEYSARNRHCLVNMETSCSFDSSICSGEGDDSLRIGGQVHAVQALVQLFLERERAAQLAESKTDELIKDAPTTQHDKSGEWQETSGEIQWVSTEKTDGTEEKHKKEEEDEELDLNKALQHAGKHMEDCIVASYTALLLGCLCQESPINVTTVREYLPEGDFSIMTEMLKKFLSFMNLTCAVGTTGQKSISRVIEYLEHC
binds: all assays above
